Measurements published in article PMC3745516.

Molecular target: CTEN (UniProt Q8IZW8)
Assay: anti-Flag co-IP, anti-HA blot
Details: reference: HA-c-Cbl wild type; sites Y774

- binding against the reference: lost
Substance: c-Cbl (from UniProt P22681) Y774F
